# Data as given in IntAct's records for PubMed 20937909.
# B1: Staphylococcal nuclease domain-containing protein 1 (Homo sapiens), Q7KZF4 (parent)
# chain: MASSAQSGGSSGGPAVPTVQRGIIKMVLSGCAIIVRGQPRGGPPPERQINLSNIRAGNLARRAAATQPDAKDTPDEPWAFPAREFLRKKLIGKEVCFTIENKTPQGREYGMIYLGKDTNGENIAESLVAEGLATRREGMRANNPEQNRLSECEEQAKAAKKGMWSEGNGSHTIRDLKYTIENPRHFVDSHHQKPVNAIIEHVRDGSVVRALLLPDYYLVTVMLSGIKCPTFRREADGSETPEPFAAEAKFFTESRLLQRDVQIILESCHNQNILGTILHPNGNITELLLKEGFARCVDWSIAVYTRGAEKLRAAERFAKERRLRIWRDYVAPTANLDQKDKQFVAKVMQVLNADAIVVKLNSGDYKTIHLSSIRPPRLEGENTQDKNKKLRPLYDIPYMFEAREFLRKKLIGKKVNVTVDYIRPASPATETVPAFSERTCATVTIGGINIAEALVSKGLATVIRYRQDDDQRSSHYDELLAAEARAIKNGKGLHSKKEVPIHRVADISGDTQKAKQFLPFLQRAGRSEAVVEYVFSGSRLKLYLPKETCLITFLLAGIECPRGARNLPGLVQEGEPFSEEATLFTKELVLQREVEVEVESMDKAGNFIGWLHIDGANLSVLLVEHALSKVHFTAERSSYYKSLLSAEEAAKQKKEKVWAHYEEQPVEEVMPVLEEKERSASYKPVFVTEITDDLHFYVQDVETGTQLEKLMENMRNDIASHPPVEGSYAPRRGEFCIAKFVDGEWYRARVEKVESPAKIHVFYIDYGNREVLPSTRLGTLSPAFSTRVLPAQATEYAFAFIQVPQDDDARTDAVDSVVRDIQNTQCLLNVEHLSAGCPHVTLQFADSKGDVGLGLVKEGLVMVEVRKEKQFQKVITEYLNAQESAKSARLNLWRYGDFRADDADEFGYSR
# Variants of: B1
# Settings: with piwl1_human PIWIL1, Q96J94
# Chain of piwl1_human PIWIL1, Q96J94 (Q96J94 whole entry): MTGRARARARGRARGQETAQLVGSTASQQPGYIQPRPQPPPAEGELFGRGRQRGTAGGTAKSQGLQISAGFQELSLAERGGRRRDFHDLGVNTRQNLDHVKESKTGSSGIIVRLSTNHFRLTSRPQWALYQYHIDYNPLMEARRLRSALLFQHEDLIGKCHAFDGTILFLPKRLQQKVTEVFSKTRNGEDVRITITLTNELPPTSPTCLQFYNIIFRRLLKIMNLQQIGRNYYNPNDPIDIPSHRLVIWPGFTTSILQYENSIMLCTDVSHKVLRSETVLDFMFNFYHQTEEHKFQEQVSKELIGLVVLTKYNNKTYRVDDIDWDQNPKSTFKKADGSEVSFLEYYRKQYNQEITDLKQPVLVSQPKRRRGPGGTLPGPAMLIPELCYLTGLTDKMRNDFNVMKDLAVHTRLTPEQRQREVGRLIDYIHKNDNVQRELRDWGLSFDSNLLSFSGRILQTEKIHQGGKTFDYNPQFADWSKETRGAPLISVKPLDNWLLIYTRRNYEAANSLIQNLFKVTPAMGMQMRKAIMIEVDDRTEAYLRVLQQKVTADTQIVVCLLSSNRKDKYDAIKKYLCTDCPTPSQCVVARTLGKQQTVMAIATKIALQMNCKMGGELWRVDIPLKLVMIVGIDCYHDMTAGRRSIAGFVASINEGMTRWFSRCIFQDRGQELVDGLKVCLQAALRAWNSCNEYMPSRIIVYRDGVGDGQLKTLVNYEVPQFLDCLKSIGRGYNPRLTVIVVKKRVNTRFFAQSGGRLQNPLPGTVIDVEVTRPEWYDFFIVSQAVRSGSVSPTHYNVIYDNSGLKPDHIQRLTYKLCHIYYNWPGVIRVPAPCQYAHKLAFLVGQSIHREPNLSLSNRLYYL
row,Variant,effect of a mutation on the interaction
1,F740L,decreasing interaction
2,Y746L,decreasing interaction strength
3,Y763L,decreasing interaction
4,Y766L,decreasing interaction
5,N768Q,decreasing interaction
6,N768R,disrupting interaction
